Data taken from article PMC7857489.

Key:
FL-MinD (E. coli) = FL-MinD (E. coli) (UniProt P0AEZ3)
MinD (E. coli) [1] = target: MinD (E. coli) (UniProt P0AEZ3)
MinD (E. coli) [2] = target: MinD (E. coli) (UniProt P0AEZ3); remark: listed apart in the source

ClpXP, sequence (P0A6H1 whole entry): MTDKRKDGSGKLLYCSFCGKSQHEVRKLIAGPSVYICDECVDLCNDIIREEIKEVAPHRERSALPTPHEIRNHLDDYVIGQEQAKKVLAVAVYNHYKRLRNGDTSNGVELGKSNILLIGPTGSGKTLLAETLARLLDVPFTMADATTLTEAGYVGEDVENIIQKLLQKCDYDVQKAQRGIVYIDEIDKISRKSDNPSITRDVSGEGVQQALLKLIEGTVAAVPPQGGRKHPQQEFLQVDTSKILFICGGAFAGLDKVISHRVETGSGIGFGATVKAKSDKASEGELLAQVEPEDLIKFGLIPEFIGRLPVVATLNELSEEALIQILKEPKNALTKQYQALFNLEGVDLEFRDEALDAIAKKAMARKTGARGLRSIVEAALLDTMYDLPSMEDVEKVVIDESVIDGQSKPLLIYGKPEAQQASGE
ClpXP, sequence (P0A6G7 15-207): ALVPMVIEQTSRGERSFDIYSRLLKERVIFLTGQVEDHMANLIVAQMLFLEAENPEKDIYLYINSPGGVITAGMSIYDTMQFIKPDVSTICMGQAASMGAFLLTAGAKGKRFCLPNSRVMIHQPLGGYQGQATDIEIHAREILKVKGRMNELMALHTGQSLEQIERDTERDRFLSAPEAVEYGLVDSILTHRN
MinD (E. coli), sequence (P0AEZ3 whole entry): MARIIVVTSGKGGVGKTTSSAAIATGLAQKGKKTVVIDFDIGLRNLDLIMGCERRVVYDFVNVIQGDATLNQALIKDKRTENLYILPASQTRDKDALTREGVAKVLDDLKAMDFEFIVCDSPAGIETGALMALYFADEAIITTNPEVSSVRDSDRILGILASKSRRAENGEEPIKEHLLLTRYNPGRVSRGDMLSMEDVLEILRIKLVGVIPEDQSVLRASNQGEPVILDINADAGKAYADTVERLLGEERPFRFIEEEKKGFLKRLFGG
FL-MinD (E. coli), sequence (P0AEZ3 whole entry): as above

rate of degradation of fluorescent MinD (fluorescent peptides released), MinD 0-16 μM, ClpXP 0.8 μM, ATP 8 mM; rate at the plateau (FL-MinD (E. coli)): 0.08 min⁻¹ | loss of full-length MinD (SDS-PAGE, Coomassie) after 3 h with MinD (6 μM), ClpX (1.0 μM), ClpP (1.2 μM) and ATP; no change when ATP or ClpP was omitted (MinD (E. coli) [1]): 45.9% | degradation of MinD (6 μM) by ClpX (0.75 μM), ClpP (0.9 μM) with ATP, SDS-PAGE and densitometry over time (MinD (E. coli) [2]): 50%
Substance: ClpXP (from UniProt P0A6H1 1-424; P0A6G7 15-207) (complex)
